*1 amine or outer side, *2 acyl side, *3 side chain or, on linkers, in order; H or OH if unused. Where no end group is shown, it is not given here. The star is where a group is joined. thiosuccinyl = thiosuccinyl group on a lysine side chain (thiosuccinyl lysine); AMC = Cc1cc(=O)oc2cc(N*)ccc12; Suc = O=C(CCC(=O)[*:2])[*:1]
Legend:
Assay in all cases: cell-based or functional assay
[1] = molecular target: T1, human Sirt5 (human, UniProt Q9NXA8 1-310, limits assumed)
[2] = molecular target: T2, human Sirt3 (human, UniProt Q9NTG7 102-399, limits assumed)
T2 sequence (looked up): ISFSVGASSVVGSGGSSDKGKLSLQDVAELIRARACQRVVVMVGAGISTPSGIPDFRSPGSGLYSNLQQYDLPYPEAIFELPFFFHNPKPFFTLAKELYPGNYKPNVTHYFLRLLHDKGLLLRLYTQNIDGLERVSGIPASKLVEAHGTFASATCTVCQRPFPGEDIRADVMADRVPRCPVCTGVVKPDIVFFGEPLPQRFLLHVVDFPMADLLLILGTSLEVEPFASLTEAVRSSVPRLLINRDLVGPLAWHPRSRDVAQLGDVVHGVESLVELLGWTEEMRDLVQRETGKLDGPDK

[3] = molecular target: T3, human Sirt2 (human, UniProt Q8IXJ6 1-389, limits assumed)
T3 sequence (looked up): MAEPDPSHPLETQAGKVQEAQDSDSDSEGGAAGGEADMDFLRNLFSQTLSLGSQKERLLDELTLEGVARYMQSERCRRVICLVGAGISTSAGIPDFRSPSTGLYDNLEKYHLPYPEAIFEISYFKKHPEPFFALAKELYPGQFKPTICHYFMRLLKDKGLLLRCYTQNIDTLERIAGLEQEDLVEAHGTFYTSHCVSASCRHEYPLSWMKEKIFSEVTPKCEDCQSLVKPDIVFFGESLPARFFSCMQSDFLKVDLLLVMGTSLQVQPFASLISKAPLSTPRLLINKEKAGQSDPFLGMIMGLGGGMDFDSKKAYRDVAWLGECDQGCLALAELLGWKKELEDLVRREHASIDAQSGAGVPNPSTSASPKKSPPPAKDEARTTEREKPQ

[4] = molecular target: T1, human Sirt5; remark: listed apart in the source
[5] = molecular target: T4, human Sirt1 (human, UniProt Q96EB6 1-747, limits assumed)
T4 sequence (looked up): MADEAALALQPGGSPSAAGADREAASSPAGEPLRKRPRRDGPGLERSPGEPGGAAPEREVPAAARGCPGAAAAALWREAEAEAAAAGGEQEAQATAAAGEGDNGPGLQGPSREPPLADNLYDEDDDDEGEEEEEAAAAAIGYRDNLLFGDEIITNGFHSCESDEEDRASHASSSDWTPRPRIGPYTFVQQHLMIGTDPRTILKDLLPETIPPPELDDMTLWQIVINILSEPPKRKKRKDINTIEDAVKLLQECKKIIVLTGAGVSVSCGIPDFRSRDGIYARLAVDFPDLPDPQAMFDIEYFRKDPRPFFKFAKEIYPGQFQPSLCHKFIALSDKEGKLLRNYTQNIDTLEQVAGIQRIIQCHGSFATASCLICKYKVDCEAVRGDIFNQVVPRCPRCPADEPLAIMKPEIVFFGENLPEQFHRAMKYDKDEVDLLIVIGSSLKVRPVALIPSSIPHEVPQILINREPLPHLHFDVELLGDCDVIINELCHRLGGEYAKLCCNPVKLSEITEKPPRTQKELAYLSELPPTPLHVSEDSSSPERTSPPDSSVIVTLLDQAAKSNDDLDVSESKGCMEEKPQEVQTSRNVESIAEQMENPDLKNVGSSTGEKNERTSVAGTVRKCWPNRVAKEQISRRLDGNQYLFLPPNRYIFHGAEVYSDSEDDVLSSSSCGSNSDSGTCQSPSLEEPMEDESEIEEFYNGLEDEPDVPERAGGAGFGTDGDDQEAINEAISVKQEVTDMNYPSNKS

T1 sequence (Q9NXA8 whole entry): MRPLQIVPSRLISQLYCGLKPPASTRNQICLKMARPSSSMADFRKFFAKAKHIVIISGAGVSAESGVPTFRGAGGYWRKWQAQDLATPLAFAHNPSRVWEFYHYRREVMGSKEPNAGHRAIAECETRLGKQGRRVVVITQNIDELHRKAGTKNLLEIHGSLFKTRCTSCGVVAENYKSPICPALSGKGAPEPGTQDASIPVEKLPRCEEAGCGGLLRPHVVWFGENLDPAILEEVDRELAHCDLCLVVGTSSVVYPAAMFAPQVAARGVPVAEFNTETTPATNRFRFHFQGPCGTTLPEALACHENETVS

## ISGASEK(Suc)-{AMC} [ISGASE(SuK)-AMC peptide]
[1]
  fluorescence increase against control without Sirt5, 1 µM Sirt5: 11 fold
  fluorescence increase against control without Sirt5, 2 µM Sirt5: 20 fold
  fluorescence increase against control without Sirt5, 5 µM Sirt5: 26 fold

## KQTARK(thiosuccinyl)STGGKA [H3K9 thiosuccinyl (H3K9 TSu) peptide, KQTAR(TSuK)STGGKA]
[2]
  IC50 (µM), inhibition of sirtuin deacylase activity: > 100 µM
[3]
  IC50 (µM), inhibition of sirtuin deacylase activity: > 100 µM
[4]
  IC50 (µM), inhibition of sirtuin deacylase activity: 5 µM
[5]
  IC50 (µM), inhibition of sirtuin deacylase activity: > 100 µM

## KQTARK(Suc)-{AMC} [KQTAR(SuK)-AMC peptide]
[1]
  fluorescence increase against control without Sirt5 (fluorogenic assay): ~3 fold
